Sequences and labels used below:
B1: Junin virus (JUNV) Z protein (natural protein)
chain: MGNCNGASKSNQPDSSRVTQPAAEFRRVAHSSLYGRYNCKCCWFADTNLITCNDHYLCLRCHQVMLRNSDLCNICWKPLPTTITVPVEPTAPPP

Drawing on paper PMC8257661, this text covers Kd for three molecules.

The target in this assay is Junin virus (JUNV) L protein (Junin virus (JUNV)). The assay can be described thus: MST; […] (20–[…]); […]; 50 mM HEPES pH 7.8, 500 mM NaCl, 1 mM TCEP; […].
The Kd is the constant that tells how readily two partners part at equilibrium. A higher Kd goes with lower affinity. Turning to Z (AA 48–78) peptide of JUNV Z protein, the Kd worked out at 1150 nM.

Z (AA 18–47) peptide of JUNV Z protein displayed a Kd of 863 nM.

For B1, the Kd amounted to 393 nM.
